Data on 22 variants can be found in the supplement of paper PMC7125110.

As a reminder, the kcat is the number of substrate molecules converted per active site and unit of time at saturation. In general, KM refers to the concentration of substrate that gives half-maximal velocity.

± gives the standard error. For part of these data: Variants at the floor of the assay were thinned out. Some results are limits rather than exact numbers.

B1: glmS ribozyme (parent)
chain: AUAAAAGCGCCAGAACUACAGAAAUGUAGUUGACGAGGAGGAGGUUUAUCGAAUUUUCGGCGGAUGCCUCCAAA

Common to all, as to details: with glucosamine-6-phosphate
Data set [1] covers variants of B1. The data set is described as follows: kcat; higher = faster cleavage; RNA array. A digest of the protocol:
(§1)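 Tiles of sequenced MiSeq chips were imaged over ~14 h at 37 °C. On them, barcoded ribozyme variants had been transcribed in situ by E. coli RNA polymerase and were tracked via a hybridised Cy3 probe while glucosamine-6-phosphate (40 μM to 10 mM) in HEPES/KCl/Mg(OAc)2 buffer flowed in. Per-tile medians, normalised to baseline and to non-cleaving reference variants, were fit to one- or two-exponential decays for kobs, and weighted Michaelis–Menten fits gave kcat and KM.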

Variants of B1 are the subject of data set [2]. Briefly: self-cleavage kobs at 160 uM GlcN6P; higher = faster cleavage; RNA array. A digest of the protocol:
as §1

The variants in data set [3] derive from B1. Briefly: KM; higher = weaker cofactor use; RNA array. A digest of the protocol:
as §1

Data set [4] covers variants of B1. Briefly: self-cleavage kobs at 640 uM GlcN6P; higher = faster cleavage; RNA array. In a few lines:
as §1

The variants in data set [5] derive from B1. The data set is described as follows: self-cleavage kobs at 2500 uM GlcN6P; higher = faster cleavage; RNA array. A digest of the protocol:
as §1

In data set [6] the parent is B1. The data set is described as follows: self-cleavage kobs at 10000 uM GlcN6P; higher = faster cleavage; RNA array. A digest of the protocol:
as §1

In data set [7] the parent is B1. Briefly: self-cleavage kobs at 40 uM GlcN6P; higher = faster cleavage; RNA array. In a few lines:
as §1

Regarding G13U A48U, in the data set with glucosamine-6-phosphate [1], the kcat is under 1e-05 s⁻¹. Also, the “self-cleavage kobs at 160 uM GlcN6P” value with glucosamine-6-phosphate [2] was under 1e-05 s⁻¹.
As to C67U C70U C71U, the kcat in the data set with glucosamine-6-phosphate [1] is 1.14e-05 ± 1.2e-06 s⁻¹. The KM with glucosamine-6-phosphate [3] worked out at 339 ± 160 µM.
Regarding G13U G51A, the kcat with glucosamine-6-phosphate [1] was under 1e-05 s⁻¹. Further, the “self-cleavage kobs at 640 uM GlcN6P” value in the data set with glucosamine-6-phosphate [4] was under 1e-05 s⁻¹. Also, the “self-cleavage kobs at 2500 uM GlcN6P” value in the data set with glucosamine-6-phosphate [5] is under 1e-05 s⁻¹. Further, in the data set with glucosamine-6-phosphate [6], the “self-cleavage kobs at 10000 uM GlcN6P” value is under 1e-05 s⁻¹.
For the variant U56A C70A, the kcat in the data set with glucosamine-6-phosphate [1] was determined as 8.96e-05 ± 1.4e-05 s⁻¹. Besides, the “self-cleavage kobs at 40 uM GlcN6P” value with glucosamine-6-phosphate [7] turned out to be 3.68e-05 ± 1.1e-05 s⁻¹. Also, the “self-cleavage kobs at 160 uM GlcN6P” value in the data set with glucosamine-6-phosphate [2] was determined as 5.73e-05 ± 1.1e-05 s⁻¹. The “self-cleavage kobs at 640 uM GlcN6P” value with glucosamine-6-phosphate [4] was 7.05e-05 ± 1.1e-05 s⁻¹. The “self-cleavage kobs at 2500 uM GlcN6P” value in the data set with glucosamine-6-phosphate [5] turned out to be 0.000153 ± 2.3e-05 s⁻¹. In addition, the “self-cleavage kobs at 10000 uM GlcN6P” value with glucosamine-6-phosphate [6] came out at 8.51e-05 ± 9.4e-06 s⁻¹.
For the variant G37C A53C, the kcat in the data set with glucosamine-6-phosphate [1] stood at 1.74e-05 ± 7.2e-06 s⁻¹.
For the variant A33U U69C, the kcat with glucosamine-6-phosphate [1] worked out at 7.22e-05 ± 1.2e-06 s⁻¹. Also, the KM in the data set with glucosamine-6-phosphate [3] was found to be 1080 ± 92 µM. Also, the “self-cleavage kobs at 2500 uM GlcN6P” value in the data set with glucosamine-6-phosphate [5] is 5.12e-05 ± 1.2e-05 s⁻¹. Further, in the data set with glucosamine-6-phosphate [6], the “self-cleavage kobs at 10000 uM GlcN6P” value was determined as 6.49e-05 ± 9.5e-06 s⁻¹.
For the variant G32C C50G, the kcat in the data set with glucosamine-6-phosphate [1] was 5.17e-05 ± 1.5e-05 s⁻¹. For the same variant, in the data set with glucosamine-6-phosphate [7], the “self-cleavage kobs at 40 uM GlcN6P” value came to 4.21e-05 ± 1.5e-05 s⁻¹. Moreover, the “self-cleavage kobs at 640 uM GlcN6P” value with glucosamine-6-phosphate [4] worked out at 6.25e-05 ± 2e-05 s⁻¹.
Consider A12U A48G, for which the kcat with glucosamine-6-phosphate [1] was determined as 0.000185 ± 3.6e-05 s⁻¹. Also, the “self-cleavage kobs at 160 uM GlcN6P” value with glucosamine-6-phosphate [2] was 2.8e-05 ± 1.2e-05 s⁻¹. Also, the “self-cleavage kobs at 640 uM GlcN6P” value in the data set with glucosamine-6-phosphate [4] is 9.16e-05 ± 1.3e-05 s⁻¹. The “self-cleavage kobs at 2500 uM GlcN6P” value with glucosamine-6-phosphate [5] amounted to 0.000246 ± 3e-05 s⁻¹. The “self-cleavage kobs at 10000 uM GlcN6P” value with glucosamine-6-phosphate [6] was found to be 0.000156 ± 1.5e-05 s⁻¹.
As for A6U A52G, the kcat in the data set with glucosamine-6-phosphate [1] was under 1e-05 s⁻¹. In addition, the “self-cleavage kobs at 160 uM GlcN6P” value in the data set with glucosamine-6-phosphate [2] was under 1e-05 s⁻¹. Further, the “self-cleavage kobs at 640 uM GlcN6P” value with glucosamine-6-phosphate [4] was under 1e-05 s⁻¹.
Turning to C11U A14C, the kcat with glucosamine-6-phosphate [1] turned out to be 0.000773 ± 0.00026 s⁻¹. For the same variant, the “self-cleavage kobs at 160 uM GlcN6P” value with glucosamine-6-phosphate [2] was 8.34e-05 ± 1.7e-05 s⁻¹. For the same variant, the “self-cleavage kobs at 640 uM GlcN6P” value with glucosamine-6-phosphate [4] came to 0.000151 ± 2.1e-05 s⁻¹. Moreover, the “self-cleavage kobs at 2500 uM GlcN6P” value with glucosamine-6-phosphate [5] is 0.000275 ± 5.2e-05 s⁻¹. Further, the “self-cleavage kobs at 10000 uM GlcN6P” value with glucosamine-6-phosphate [6] was 0.000712 ± 8.5e-05 s⁻¹.
Consider A39G C50A, for which the catalytic constant (kcat) in the data set with glucosamine-6-phosphate [1] was determined as 3.27e-05 ± 5.7e-06 s⁻¹.
Take G7A C70U: the kcat in the data set with glucosamine-6-phosphate [1] was 6.43e-05 ± 1.1e-05 s⁻¹. In the data set with glucosamine-6-phosphate [3], the KM was 5580 ± 2200 µM. Further, the “self-cleavage kobs at 10000 uM GlcN6P” value with glucosamine-6-phosphate [6] was 4.14e-05 ± 7.5e-06 s⁻¹.
Regarding G13U U47G, the kcat with glucosamine-6-phosphate [1] was 0.000262 ± 5.2e-05 s⁻¹. Besides, the KM with glucosamine-6-phosphate [3] turned out to be 2420 ± 890 µM. The “self-cleavage kobs at 640 uM GlcN6P” value with glucosamine-6-phosphate [4] is 4.72e-05 ± 7.2e-06 s⁻¹. The “self-cleavage kobs at 2500 uM GlcN6P” value with glucosamine-6-phosphate [5] came to 0.000158 ± 1.5e-05 s⁻¹. In the data set with glucosamine-6-phosphate [6], the “self-cleavage kobs at 10000 uM GlcN6P” value turned out to be 0.00019 ± 2.5e-05 s⁻¹.
Regarding U56G G66C, in the data set with glucosamine-6-phosphate [1], the turnover number (kcat) came out at 0.000388 ± 2.1e-05 s⁻¹. Besides, in the data set with glucosamine-6-phosphate [3], the KM worked out at 1800 ± 300 µM. The “self-cleavage kobs at 640 uM GlcN6P” value with glucosamine-6-phosphate [4] is 9.51e-05 ± 3.1e-05 s⁻¹. In addition, the “self-cleavage kobs at 2500 uM GlcN6P” value with glucosamine-6-phosphate [5] was found to be 0.000244 ± 4.9e-05 s⁻¹. Moreover, the “self-cleavage kobs at 10000 uM GlcN6P” value with glucosamine-6-phosphate [6] was 0.000325 ± 3.9e-05 s⁻¹.
C8A C70A: in the data set with glucosamine-6-phosphate [1], the kcat was 1.28e-05 ± 2.3e-06 s⁻¹.
A39G A48G: in the data set with glucosamine-6-phosphate [1], the kcat stood at 0.000124 ± 2.2e-05 s⁻¹. In the data set with glucosamine-6-phosphate [5], the “self-cleavage kobs at 2500 uM GlcN6P” value is 0.00013 ± 2.7e-05 s⁻¹. The “self-cleavage kobs at 10000 uM GlcN6P” value in the data set with glucosamine-6-phosphate [6] was 0.000106 ± 1.4e-05 s⁻¹.
As to A39C C70A, the kcat with glucosamine-6-phosphate [1] was under 1e-05 s⁻¹. Besides, the “self-cleavage kobs at 40 uM GlcN6P” value with glucosamine-6-phosphate [7] is under 1e-05 s⁻¹. Further, the “self-cleavage kobs at 640 uM GlcN6P” value in the data set with glucosamine-6-phosphate [4] is under 1e-05 s⁻¹.
In the case of A64U C67G, the kcat in the data set with glucosamine-6-phosphate [1] was under 1e-05 s⁻¹. In the data set with glucosamine-6-phosphate [7], the “self-cleavage kobs at 40 uM GlcN6P” value is under 1e-05 s⁻¹. For the same variant, the “self-cleavage kobs at 640 uM GlcN6P” value in the data set with glucosamine-6-phosphate [4] was under 1e-05 s⁻¹.
Turning to A14U A42U, the catalytic constant (kcat) in the data set with glucosamine-6-phosphate [1] is 3.26e-05 ± 1.5e-06 s⁻¹. Further, the KM in the data set with glucosamine-6-phosphate [3] amounted to 884 ± 270 µM. Moreover, the “self-cleavage kobs at 10000 uM GlcN6P” value with glucosamine-6-phosphate [6] was determined as 3.02e-05 ± 7.7e-06 s⁻¹.
With A15C A52U, in the data set with glucosamine-6-phosphate [1], the kcat worked out at 0.000104 ± 4.8e-06 s⁻¹. In addition, the KM in the data set with glucosamine-6-phosphate [3] turned out to be 1830 ± 260 µM. Also, the “self-cleavage kobs at 2500 uM GlcN6P” value in the data set with glucosamine-6-phosphate [5] came to 6.2e-05 ± 1.7e-05 s⁻¹. Further, the “self-cleavage kobs at 10000 uM GlcN6P” value with glucosamine-6-phosphate [6] amounted to 8.65e-05 ± 1.9e-05 s⁻¹.
Take G29U U54A C67G: the kcat with glucosamine-6-phosphate [1] amounted to 8.75e-05 ± 2.6e-05 s⁻¹. In addition, the “self-cleavage kobs at 160 uM GlcN6P” value in the data set with glucosamine-6-phosphate [2] is 5.68e-05 ± 1.4e-05 s⁻¹. Moreover, the “self-cleavage kobs at 640 uM GlcN6P” value with glucosamine-6-phosphate [4] is 8.37e-05 ± 1.3e-05 s⁻¹. In addition, the “self-cleavage kobs at 2500 uM GlcN6P” value with glucosamine-6-phosphate [5] amounted to 0.000134 ± 2.5e-05 s⁻¹. Also, the “self-cleavage kobs at 10000 uM GlcN6P” value in the data set with glucosamine-6-phosphate [6] was found to be 5.17e-05 ± 2e-05 s⁻¹.
As to G13U C68G, in the data set with glucosamine-6-phosphate [1], the kcat was 2.36e-05 ± 6.5e-06 s⁻¹.
